Assay results taken from article PMC7515738, “Identification and characterization of hippuristanol-resistant mutants reveals eIF4A1 dependencies within mRNA 5′ leader regions”.

Assays:
Details in all cases: tags: His6, single strand
[1] = target: eIF4A1 wt (UniProt P60842 1-406); experiment: fluorescence polarization; no Hipp; FP: 1 uM recombinant protein, FAM-poly r(AG)8, vehicle (0.1% DMSO) or Hipp, 30 min; buffer, salt, pH and temperature not given in the material
[2] = target: eIF4A1 G370S (UniProt P60842 1-406, G370S); experiment: fluorescence polarization; no Hipp; similar to wt; FP: 1 uM recombinant protein, FAM-poly r(AG)8, vehicle (0.1% DMSO) or Hipp, 30 min; buffer, salt, pH and temperature not given in the material
[3] = target: eIF4A1 G361C (UniProt P60842 1-406, G361C); experiment: as above

Measured: binding result

Sequence of eIF4A1 G361C (P60842 whole entry G361C): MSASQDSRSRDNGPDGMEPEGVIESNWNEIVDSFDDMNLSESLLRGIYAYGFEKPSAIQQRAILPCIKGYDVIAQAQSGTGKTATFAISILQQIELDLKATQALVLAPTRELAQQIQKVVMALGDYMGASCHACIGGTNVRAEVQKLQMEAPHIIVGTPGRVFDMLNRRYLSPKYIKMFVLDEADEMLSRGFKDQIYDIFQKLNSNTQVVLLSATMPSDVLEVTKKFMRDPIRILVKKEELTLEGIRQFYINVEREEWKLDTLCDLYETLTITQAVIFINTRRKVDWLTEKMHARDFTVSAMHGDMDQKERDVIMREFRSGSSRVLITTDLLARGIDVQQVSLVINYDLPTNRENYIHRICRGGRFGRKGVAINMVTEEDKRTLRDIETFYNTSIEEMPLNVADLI
Sequence of eIF4A1 G370S (P60842 whole entry G370S): as the sequence (P60842 whole entry G361C) above, with C361G, G370S counted along it
Sequence of eIF4A1 wt (P60842 whole entry): as the sequence (P60842 whole entry G361C) above, with C361G counted along it

AGAGAGAGAGAGAGAG (ssRNA) [poly r(AG)8]
binds: [1] | [2] | [3]
